Test results from publication PMC12509998.

Legend:
[1] = target: eukaryotic elongation factor 2 kinase (UniProt O00418)
[2] = target: eukaryotic elongation factor 2 kinase (UniProt O00418); remark: listed apart in the source

eukaryotic elongation factor 2 kinase, sequence (O00418 whole entry): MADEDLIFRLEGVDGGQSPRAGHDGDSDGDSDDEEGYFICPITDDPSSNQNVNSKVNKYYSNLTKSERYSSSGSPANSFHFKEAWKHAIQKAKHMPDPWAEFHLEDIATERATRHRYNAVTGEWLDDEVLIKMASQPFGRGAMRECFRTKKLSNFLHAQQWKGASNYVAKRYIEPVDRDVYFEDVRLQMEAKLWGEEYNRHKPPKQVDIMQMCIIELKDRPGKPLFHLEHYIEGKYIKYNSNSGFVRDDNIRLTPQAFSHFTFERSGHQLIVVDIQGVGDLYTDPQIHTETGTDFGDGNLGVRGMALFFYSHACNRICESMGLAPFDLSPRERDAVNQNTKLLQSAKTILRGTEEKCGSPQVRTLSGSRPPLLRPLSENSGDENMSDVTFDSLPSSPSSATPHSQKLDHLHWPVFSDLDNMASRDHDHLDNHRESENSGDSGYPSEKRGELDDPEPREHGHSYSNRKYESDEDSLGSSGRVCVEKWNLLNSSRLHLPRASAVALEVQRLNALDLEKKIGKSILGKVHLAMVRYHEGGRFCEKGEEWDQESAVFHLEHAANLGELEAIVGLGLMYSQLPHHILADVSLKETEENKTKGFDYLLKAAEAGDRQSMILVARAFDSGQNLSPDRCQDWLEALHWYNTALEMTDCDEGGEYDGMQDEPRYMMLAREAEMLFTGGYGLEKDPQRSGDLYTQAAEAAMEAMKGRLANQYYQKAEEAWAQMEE

| KCaM (concentration of CaM at half-maximal activity) of T348-phosphorylated eEF-2K toward 150 μM peptide substrate, 50 μM free Ca2+ [1] | KCaM^app of eEF-2K (0.5 nM) activity toward 5 μM yeast eEF-2, 50 μM free Ca2+ [2] | KCaM (concentration of CaMC at half-maximal activity) of T348-phosphorylated eEF-2K toward 150 μM peptide substrate, 50 μM free Ca2+ [1] | Substance |
| --- | --- | --- | --- |
| 67 nM | 121 nM | – | calmodulin, full-length (from UniProt P0DP23 1-149) (natural protein) |
| – | 156 nM | 85 nM | isolated C-terminal lobe of calmodulin (residues 76-148) (from UniProt P0DP23 77-149) (domain or fragment) |
